The target in data set [1] is RILPL2 RH1-cc (Homo sapiens) (UniProt Q969X0). Description: ITC. To be noted: cited from earlier work.
Data set [2] concerns the molecule itself. The data set is described as follows: AUC; sedimentation velocity with fluorescence detection (SV-FDS), 20 °C, 50,000 rpm; dilution series of Blue-NHS-labelled fragment (RH1-LZI 460 nM to 1.1 nM; LZI 770 nM to 2.4 nM; above 60 nM mixed with unlabelled protein); dimer to monomers.
Data set [3] concerns the molecule itself. Description: SEC-MALS; Superdex 200 10/300 GL increase, 20 mM Hepes pH 7.5, 200 mM NaCl, 0.5 ml/min; oligomeric state of the fragment. (In general: SEC sorts molecules by how far they enter the pores of the column.)
Data set [4] addresses T1, human myosin 5a globular tail domain (GTD; residues 1463-1855) (human, UniProt Q9Y4I1 1463-1855).
T1 construct: myosin 5a (myo5a), human, globular tail domain, residues 1463-1855; pProEx HTB vector with N-terminal 6x Histidine tag and a rTEV cleavage site; the methods describe no cleavage step; also called myo5a-GTD; myo5A-GTD; source: E. coli Rosetta, purified (His-Trap, Superdex 75 gel filtration)
The data set is described as follows: MST; 25 nM Blue-NHS-labelled JIP3 fragment, myo5a-GTD titrated (16 1:1 dilutions); 20 mM hepes pH 7.5, 150 mM NaCl, 2 mM MgCl2, 0.5 mM TCEP, 0.05% tween; 25 °C; three independent replicates. To be noted: both partners purified.

The target of data set [5] is T1, human myosin 5a globular tail domain …. The data set is described as follows: AUC; sedimentation velocity, absorbance at 280 nm, 20 °C, 42000 rpm; 20 mM Hepes pH 7.5, 150 mM NaCl, 2 mM MgCl2, 1 mM TCEP; mixtures 22.5 uM JIP3-RH1-LZI + 7.5 uM myo5a-GTD and 7.5 uM JIP3-RH1-LZI + 22.5 uM myo5a-GTD. To be noted: both partners purified.

The Kd is the equilibrium constant for the complex coming apart. Broadly, the stoichiometry N is the number of molecules, sites or subunits per partner or assembly.

T1 sequence (Q9Y4I1 1463-1855): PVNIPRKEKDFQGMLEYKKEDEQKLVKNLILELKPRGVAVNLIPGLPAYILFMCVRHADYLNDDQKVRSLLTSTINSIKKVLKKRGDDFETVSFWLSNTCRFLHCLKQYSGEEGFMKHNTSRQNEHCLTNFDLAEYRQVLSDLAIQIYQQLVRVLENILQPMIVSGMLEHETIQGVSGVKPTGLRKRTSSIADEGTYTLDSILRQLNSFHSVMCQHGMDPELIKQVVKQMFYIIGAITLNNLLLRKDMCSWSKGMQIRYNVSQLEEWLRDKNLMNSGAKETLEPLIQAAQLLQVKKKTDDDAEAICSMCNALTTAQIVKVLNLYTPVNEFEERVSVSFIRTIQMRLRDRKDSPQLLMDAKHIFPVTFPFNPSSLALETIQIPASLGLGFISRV
RILPL2 RH1-cc (Homo sapiens), sequence (Q969X0 1-97): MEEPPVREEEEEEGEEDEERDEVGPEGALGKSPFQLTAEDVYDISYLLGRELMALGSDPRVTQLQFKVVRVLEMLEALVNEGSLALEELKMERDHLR

As to myosin Va GTD (from UniProt Q9Y4I1), the equilibrium dissociation constant (Kd) in data set [1] is 300 nM.

B1: LZI fragment of JIP3 (residues 71-187) (domain or fragment, mouse, UniProt Q9ESN9-1 71-187, looked up)
chain: SENQEHEVELELLREDNEQLLTQYEREKALRKQAEEKFIEFEDALEQEKKELQIQVEHYEFQTRQLELKAKNYADQISRLEERESEMKKEYNALHQRHTEMIQTYVEHIERSKMQQV
modifications: labelled with Monolith NT.115 Protein Labelling Kit BLUE NHS in the SV-FDS experiments only
notes: also called JIP3-LZI; LZ1 fragment; not shown: His-thioredoxin, N-terminal, cleaved
Molecule B1 had a Kd in data set [2] of 110 nM. The “stoichiometry N” value in data set [3] was 2.

B2: RH1-lz3 fragment of JIP3 (residues 22-100) (domain or fragment, mouse, UniProt Q9ESN9-1 22-100, looked up)
chain: GSVMSERVSGLAGSIYREFERLIHCYDEEVVKELMPLVVNVLENLDSVLSENQEHEVELELLREDNEQLLTQYEREKAL
modifications: labelled with Protein Labeling Kit Blue-NHS in the MST experiment only
notes: cloned, expressed and purified similarly as the other JIP3 fragments, which are of mouse JIP3 NP_038959.2; also called JIP3-RH1-lz3; JIP3-RH1-Lz3; source: E. coli Rosetta, purified similarly as the other JIP3/4 fragments; not shown: His-thioredoxin, N-terminal, cleaved
For B2, the “stoichiometry N” value in data set [3] was determined as 2. For the same molecule, the dissociation constant Kd in data set [4] was 2200 ± 500 nM.

B3: RH1-LZI fragment of JIP3 (residues 22-187) (domain or fragment, mouse)
chain: GSHGSVMSERVSGLAGSIYREFERLIHCYDEEVVKELMPLVVNVLENLDSVLSENQEHEVELELLREDNEQLLTQYEREKALRKQAEEKFIEFEDALEQEKKELQIQVEHYEFQTRQLELKAKNYADQISRLEERESEMKKEYNALHQRHTEMIQTYVEHIERSKMQQV
modifications: labelled with Monolith NT.115 Protein Labelling Kit BLUE NHS in the SV-FDS experiments only
notes: Gly-Ser-His residues remaining after the thrombin cleavage; The construct is mouse JIP3; Results and modelling speak of human JIP3 (NP_055948.2); also called JIP3-RH1-LZI; RH1-LZI tandem of JIP3; not shown: His-thioredoxin, N-terminal, cleaved
Turning to B3, in data set [5], the binding result is listed as “binds”. Further, the dissociation constant (Kd) in data set [2] is < 1 nM. Also, the “stoichiometry N” value in data set [3] came to 2.

Values taken from paper PMC6831827, “Structural characterization of the RH1-LZI tandem of JIP3/4 highlights RH1 domains as a cytoskeletal motor-binding motif” (Scientific Reports, 2019).
